From article doi:10.1101/2020.05.08.079574 come the findings set out here.

For experiment [1], the target named is HAdV-64 virion (E3 deleted, replication-competent HAdV-64 virus with CMV-eGFP ORF, WT HAdV-64 capsid) (human adenovirus 64 (HAdV-64)). Description: co-sedimentation.
Experiment [2] has as its target HAdV-5 virion (E1/E3-deleted, replication-defective HAdV-5 vector with eGFP cassette) (human adenovirus 5 (HAdV-5)) (UniProt P04133). Briefly: co-sedimentation.

Ends that are not written are not given here.

In the case of ATCYCRTGRCATRESLSGVCEISGRLYRLCCR (disulfide (positions not given here); also: oxidatively folded) [Human defensin 5], the fold less HD5 bound per virion than to HAdV-5 at 20 µM HD5 in experiment [1] was 83 fold. The molecule also displayed a stoichiometry N (molecules of HD5 per virion) in experiment [2] of 7090.
